Here are results for 2 substances from patent US20130217027A1.

Assay [1] concerns the target IS (1): peptide ARTK(me3)QTAR conjugated to a 125 bp DNA strand (H3K4me3-IS). Briefly: ChIP qPCR primer set H3K4me3_qPCR_Vshort; ratio of H3K4me3-antibody ChIP over H3K36me3-antibody ChIP. In general terms: In qPCR the cycle at which signal appears reflects the starting amount.
For assay [2] the target is unchanged. The experiment in a line: ChIP qPCR primer set H3K4me3_qPCR_short; enrichment of H3K4me3-IS normalised to Control-IS (H3_qPCR_short).
Assay [3] has the same target. The experiment in a line: ChIP qPCR primer set H3K4me3_qPCR_long; enrichment of H3K4me3-IS normalised to Control-IS (H3_qPCR_long).
The target of assay [4] is IS (2): peptide ARTKQTAR without the methylation modification conjugated to a 125 bp DNA strand (Control-IS). The experiment in a line: ChIP of spiked conjugate, qPCR primer set H3_qPCR_long, well E2.
For assay [5] the target is unchanged. Briefly: ChIP of spiked conjugate, qPCR primer set H3_qPCR_short, well I1.
Assay [6] concerns the target IS (1): peptide ARTK(me3)QTAR conjugated to a 125 bp DNA strand (H3K4me3-IS). Briefly: ChIP qPCR primer set H3K4me3_qPCR_short; ratio of H3K4me3-antibody ChIP over H3K36me3-antibody ChIP.
For assay [7], the target named is IS (2): peptide ARTKQTAR without the methylation modification conjugated to a 125 bp DNA strand (Control-IS). Briefly: ChIP qPCR primer set H3_qPCR_short; ratio of H3K4me3-antibody ChIP over H3K36me3-antibody ChIP.
For assay [8], the target named is IS (1): peptide ARTK(me3)QTAR conjugated to a 125 bp DNA strand (H3K4me3-IS). Briefly: ChIP qPCR primer set H3K4me3_qPCR; enrichment of H3K4me3-IS normalised to Control-IS (H3_qPCR).
For assay [9] the target is unchanged. Briefly: ChIP of spiked conjugate, qPCR primer set H3K4me3_qPCR, well C1.
Assay [10] concerns the target IS (2): peptide ARTKQTAR without the methylation modification conjugated to a 125 bp DNA strand (Control-IS). The experiment in a line: ChIP qPCR primer set H3_qPCR; ratio of H3K4me3-antibody ChIP over H3K36me3-antibody ChIP.
Assay [11] concerns the target IS (1): peptide ARTK(me3)QTAR conjugated to a 125 bp DNA strand (H3K4me3-IS). The experiment in a line: ChIP of spiked conjugate, qPCR primer set H3K4me3_qPCR_Vshort, well M2.
The target is the same in assay [12]. The experiment in a line: ChIP qPCR primer set H3K4me3_qPCR; ratio of H3K4me3-antibody ChIP over H3K36me3-antibody ChIP.
For assay [13] the target is unchanged. The experiment in a line: ChIP of spiked conjugate, qPCR primer set H3K4me3_qPCR_long, well G1.
Assay [14] shares this target. The experiment in a line: ChIP qPCR primer set H3K4me3_qPCR_Vshort; enrichment of H3K4me3-IS normalised to Control-IS.
For assay [15] the target is unchanged. Briefly: ChIP with 100 fg of internal standard spiked after sonication, qPCR.
In assay [16] the target is IS (2): peptide ARTKQTAR without the methylation modification conjugated to a 125 bp DNA strand (Control-IS). Briefly: ChIP of spiked conjugate, qPCR primer set H3_qPCR, well A2.
In assay [17] the target is IS (1): peptide ARTK(me3)QTAR conjugated to a 125 bp DNA strand (H3K4me3-IS). Briefly: ChIP of spiked conjugate, qPCR primer set H3K4me3_qPCR_long, well G2.
Assay [18] concerns the target IS (2): peptide ARTKQTAR without the methylation modification conjugated to a 125 bp DNA strand (Control-IS). Briefly: ChIP qPCR primer set H3_qPCR_long; ratio of H3K4me3-antibody ChIP over H3K36me3-antibody ChIP.
In assay [19] the target is IS (1): peptide ARTK(me3)QTAR conjugated to a 125 bp DNA strand (H3K4me3-IS). Briefly: ChIP of spiked conjugate, qPCR primer set H3K4me3_qPCR_short, well K1.
In assay [20] the target is IS (2): peptide ARTKQTAR without the methylation modification conjugated to a 125 bp DNA strand (Control-IS). Briefly: ChIP of spiked conjugate, qPCR primer set H3_qPCR, well A1.
Assay [21] addresses IS (1): peptide ARTK(me3)QTAR conjugated to a 125 bp DNA strand (H3K4me3-IS). Briefly: ChIP qPCR primer set H3K4me3_qPCR_long; ratio of H3K4me3-antibody ChIP over H3K36me3-antibody ChIP.
The target of assay [22] is IS (2): peptide ARTKQTAR without the methylation modification conjugated to a 125 bp DNA strand (Control-IS). Briefly: ChIP of spiked conjugate, qPCR primer set H3_qPCR_long, well E1.
The target of assay [23] is IS (1): peptide ARTK(me3)QTAR conjugated to a 125 bp DNA strand (H3K4me3-IS). Briefly: ChIP of spiked conjugate, qPCR primer set H3K4me3_qPCR_Vshort, well M1.
Assay [24] shares this target. Briefly: ChIP of spiked conjugate, qPCR primer set H3K4me3_qPCR, well C2.
In assay [25] the target is IS (2): peptide ARTKQTAR without the methylation modification conjugated to a 125 bp DNA strand (Control-IS). Briefly: ChIP of spiked conjugate, qPCR primer set H3_qPCR_short, well I2.
Assay [26] addresses IS (1): peptide ARTK(me3)QTAR conjugated to a 125 bp DNA strand (H3K4me3-IS). The experiment in a line: ChIP with 10 fg of internal standard spiked after sonication, qPCR.
For assay [27] the target is unchanged. Briefly: ChIP of spiked conjugate, qPCR primer set H3K4me3_qPCR_short, well K2.
The target is the same in assay [28]. Briefly: ChIP of spiked conjugate, qPCR primer set H3K4me3_qPCR, well C4.
The target is the same in assay [29]. The experiment in a line: ChIP of spiked conjugate, qPCR primer set H3K4me3_qPCR_short, well K3.
Assay [30] has the same target. The experiment in a line: ChIP of spiked conjugate, qPCR primer set H3K4me3_qPCR_long, well G3.
Assay [31] shares this target. Briefly: ChIP of spiked conjugate, qPCR primer set H3K4me3_qPCR, well C3.
For assay [32] the target is unchanged. Briefly: ChIP of spiked conjugate, qPCR primer set H3K4me3_qPCR_Vshort, well M3.
Assay [33] has the same target. The experiment in a line: ChIP of spiked conjugate, qPCR primer set H3K4me3_qPCR_short, well K4.
The target of assay [34] is IS (2): peptide ARTKQTAR without the methylation modification conjugated to a 125 bp DNA strand (Control-IS). The experiment in a line: ChIP of spiked conjugate, qPCR primer set H3_qPCR_long, well E3.
For assay [35], the target named is IS (1): peptide ARTK(me3)QTAR conjugated to a 125 bp DNA strand (H3K4me3-IS). The experiment in a line: ChIP of spiked conjugate, qPCR primer set H3K4me3_qPCR_long, well G4.
Assay [36] concerns the target IS (2): peptide ARTKQTAR without the methylation modification conjugated to a 125 bp DNA strand (Control-IS). Briefly: ChIP of spiked conjugate, qPCR primer set H3_qPCR_long, well E4.
Assay [37] has as its target IS (1): peptide ARTK(me3)QTAR conjugated to a 125 bp DNA strand (H3K4me3-IS). The experiment in a line: ChIP of spiked conjugate, qPCR primer set H3K4me3_qPCR_Vshort, well M4.
The target in assay [38] is IS (2): peptide ARTKQTAR without the methylation modification conjugated to a 125 bp DNA strand (Control-IS). Briefly: ChIP of spiked conjugate, qPCR primer set H3_qPCR_short, well I4.
For assay [39] the target is unchanged. Briefly: ChIP of spiked conjugate, qPCR primer set H3_qPCR, well A4.
For assay [40] the target is unchanged. The experiment in a line: ChIP of spiked conjugate, qPCR primer set H3_qPCR_short, well I3.
Assay [41] has the same target. Briefly: ChIP of spiked conjugate, qPCR primer set H3_qPCR, well A3.

As to “antibody specific for H3K4me3 (Millipore, catalogue Number: 07-473, rabbit, polyclonal)”, the K4/K36 in assay [1] stood at 75.6 fold; in assay [6], 45.9 fold; in assay [7], 0.871 fold; in assay [10], 1.16 fold; in assay [12], 30.9 fold; in assay [18] it was 0.862 fold. The K4/K36 in assay [21] amounted to 37.8 fold. Also, the (K4/K36)^K4-ChIP/(K4/K36)^K36-ChIP in assay [2] was 52.7 fold; in assay [3], 43.9 fold; in assay [8], 26.6 fold; in [14] it was 86.8 fold. Besides, the Cp (qPCR) came to 20.5 in [4]; 19.5 in assay [5]; 14.7 in [9]; 14.4 in [11]; 15.2 in [13]; 20.4 in assay [16]. Also, the Cp (qPCR) is 15.6 in assay [17]; 14.2 in assay [19]; 20.4 in [20]; 20.4 in [22]; 14 in [23]; 15.2 in [24]. The Cp (qPCR) in [25] was determined as 19.9; in assay [27] it was 14.9. Moreover, the qPCR cycle of enrichment was determined as 26 cycle in assay [15] and 30 cycle in [26].
In the case of “non-relevant control antibody that should recognize H3K36me3 (Abcam, catalogue Number: ab9050, rabbit, polyclonal)”, the Cp (qPCR) in assay [28] worked out at 19.9; in assay [29], 19.9; in [30] it was 20.4; in [31], 19.9; in assay [32], 20.1; in assay [33] it was 20.2. Further, the Cp (qPCR) in assay [34] is 20.6; in [35], 20.9; in [36] it was 19.9; in assay [37] it was 20.9; in [38], 19.9; in [39], 21. Besides, the values for the Cp (qPCR) in assay [40] and in assay [41] were 19.1 and 20.3, respectively.
